Data from the nanobody polyreactivity screen of Harvey et al. (2022).

Test: yeast display, Sf9 membrane polyspecificity reagent, FACS + sequencing; frameworks hold sequencing errors
Summary of the method: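 Polyreactivity labels are assigned by the sorting gate from which each nanobody was recovered. The gates were low and high (top ~1%), set on anti-HA fluorescence for expression and streptavidin fluorescence for reagent binding. Before sorting, galactose-induced (36–48 hours) yeast display cells were stained for 1 hour at 4 °C with 10% biotinylated, detergent-solubilized Sf9 membrane reagent.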

Row | Sequence | polyreactivity (PSR sort gate)
1 | QVQLVESGGGLVQAGGSLRLSCAASGRTFYRYVMAWYRQAPRKERELVADITRSGGSTYYADSVKGRFTISRDNAKNTVYLQMNSLKPEDTAVYYCNKRYRVWFDYWGQGTQVTVSS | high polyreactivity
2 | QVQLVESGGGLVQAGGSLRLSCAASGRTFYRYVMGWYRQAPGKERALVAAITWSGGSTYYADSVKGRFTISRDNAKNTVYLQMNSLKPEDTAVYYCAKGLYDASRRYYYWGQGTQVTVSS | high polyreactivity
3 | QVQLVESGGGLVQAGGSLRLSCAASGRTFYSNAMGWYRQAPGKERELVAAITSTDDSTYYADSVKGRFTISRDNAKNTVNLQMYSLKPEYTAVYYCNTDGLIAIRGLWWFEFDYWGQGTQVTVSS | low polyreactivity
4 | QVQLVESGGGLVQAGGSLRLSCAASGRTFYSNAMGWYRQAPGKERELVATITRRGGSTYYADSVKGRFTISRDNAKNTVYLQMNSLKPEDTAVYYCNAVSSKGNPYYYWGQGTQVTVSS | high polyreactivity
5 | QVQLVESGGGLVQAGGSLRLSCAASGRTFYSYAMGWYRQAPGKEREFVAAINWSGTSTYADSVKGRFTISRDNAKNTVYLQMNSLKPEDTAVSYCAKTYRTLVRYWGQPFGYWGQGTQVTVSS | high polyreactivity
6 | QVQLVESGGGLVQAGGSLRLSCAASGRTFYSYAMGWYRQAPGKERELVAAINSGGDTYYADSVKGRFTISRDNAKNSVYLQMNSLKAEDSAVYYCAADYYWEMDSWGQGTQVTVSS | low polyreactivity
7 | QVQLVESGGGLVQAGGSLRLSCAASGRTFYSYAMGWYRQAPGKERELVAAISYTGASTFYADSVKGRFTISRDNAKNTVYLQMNSLKPEDTAVYYCAARKVRFGVDYWGPGTQVTVSS | high polyreactivity
8 | QVQLVESGGGLVQAGGSLRLSCAASGRTFYSYAMGWYRQAPGKERELVASISSSGASTYYADSVKGRFTISRDNAKNTVYLQMNSLKPEDTAVYYCNSVWRTSFITIYGFDYWGQGTQVTVSS | high polyreactivity
9 | QVQLVESGGGLVQAGGSLRLSCAASGRTFYSYAMGWYRQAPGKEREWVATITNGDTTNYADSVKGRFTISRDNAKNTVYLQMNSLKPEDTAVYYCAKDISPGYDEYDYWGQGTQVTVSS | low polyreactivity
10 | QVQLVESGGGLVQAGGSLRLSCAASGRTFYSYAMGWYSQAPGKERELVATISSNADGTYYADSVKGRFTISRDNAKNTVYLQMNSLKPEDTAVYYCAATYRRSHRYNYWGQGTQVTVSS | high polyreactivity
11 | QVQLVESGGGLVQAGGSLRLSCAASGRTFYSYTMGWYRQAPGKEREFVAAISSSGSSTYYADSVKGRFTISRDNAKYTVYLQMNSLKPEDTAVYYCAATRYRYPGYFRYDYWGQGTQVTVSS | high polyreactivity
12 | QVQLVESGGGLVQAGGSLRLSCAASGRTFYSYVMGWYRQAPGKEREFVADISQSGGRTFYSDSVKGRFTISRDNAKNTVYLQMNSLKPEDTAVYYCAAAKRGSYARGYYWGQGTQVTVSS | low polyreactivity
13 | QVQLVESGGGLVQAGGSLRLSCAASGRTFYSYVMGWYRQAPGKEREFVADISQSGGRTYYADSVKGRFTISRDNAKNTVYLQMNSLKPEDTAVYYCAAAKRGSYARGYYWGQGTQVTVSS | low polyreactivity
14 | QVQLVESGGGLVQAGGSLRLSCAASGRTFYSYVMGWYRQAPGKERELVAAIRSSGRTYYADSVKGRFTISRDNAKNTVYLQMNRLTPEDTAVYYCAAYAWVSGSLYDSWGQGTQVTVSS | high polyreactivity
15 | QVQLVESGGGLVQAGGSLRLSCAASGRTFYTNAMGWYRQAAGKERELVAVISRGGTTYYADSVKGRFTISRDNAKNTVYLQMNSLKPEDTAVYYCAKQRPSGDSSSQMGSWGQGTQVTVSS | low polyreactivity
16 | QVQLVESGGGLVQAGGSLRLSCAASGRTFYTNAMGWYRQAPGKERELVASISGSGGSTYYADSVKGRFTISRDNGKNTVYLQMNSLNPEDTAVYYCAADPAPTVEFGKYDYWGQGTQVTVSS | low polyreactivity
17 | QVQLVESGGGLVQAGGSLRLSCAASGRTFYTNTMGWYRQAPGKERELVAAISYSGSSTYYADSVKGRFTISRDNAKNTVYLQMNCLKPEDTAVYYCNAVRYYRYYYWGQGTQVTVSS | low polyreactivity
18 | QVQLVESGGGLVQAGGSLRLSCAASGRTFYTYAMGWYRQAPGKERELVAAISISGSRTYYADSVKGRFTISRDNAKNTVYLQMNSLKPEDTAVYYCAADRSYWAYVFQYVSYGEDYWGQGTQVTVSS | high polyreactivity
19 | QVQLVESGGGLVQAGGSLRLSCAASGRTFYTYAMGWYRQAPGKERELVAAISSGGSTYYADSVKGRFTISRDNAKNTVYLQMNSLKPEDTAVYYCAARYSKRVWYGYWGQGTQVTVSS | high polyreactivity
20 | QVQLVESGGGLVQAGGSLRLSCAASGRTFYTYAMGWYRQAPGKERELVASISRSGSGTFYADSVKGRFTISRDNAKNTVYLQMNSLKPEDTAVYYCNAVSAAKIPFQKYGYWGQGTQVTVSS | high polyreactivity
21 | QVQLVESGGGLVQAGGSLRLSCAASGRTFYVNALGWYRQAPGKERELVAGISFSDGSTYYADSVKGRFTISRDNAKNTVYLQMNSLKPEDTAVYYCATVGAFDIYYGYGYWGQGTQVTVSS | low polyreactivity
22 | QVQLVESGGGLVQAGGSLRLSCAASGRTFYVNAMGWYRQAPGKERELVAAISRSGRTNYADSVKGRFTISRDNAKNTVYLQMNSLKPEDTAVYYCAAALSNVRNVRSPYDYWGQGTQVTVSS | high polyreactivity

Row | Sequence | polyreactivity (PSR sort gate)
23 | QVQLVESGGGLVQAGGSLRLSCAASGRTFYVNAMGWYRQAPGKERELVARISSSGITYYADSVKGRFTISRDNAKNTVYLQMNSLKPEDTAVYYCAAEYRSYSTLNRKFWYSPEYDYWGQGTQVTVSS | low polyreactivity
24 | QVQLVESGGGLVQAGGSLRLSCAASGRTFYVNAMGWYRQAPGKETELVAAISSGSSTDYADSVKGRFTISRDNAKNTVYLQMNSLKPEDTAVYYCAKRWRRRFVDVWSLYDYWGQGTQVTVSS | low polyreactivity
25 | QVQLVESGGGLVQAGGSLRLSCAASGRTFYVNTMGWYRQAPGKERELVAAITSRGGRTHYADSVKGRFTISRDNAKNNVYLQMNSLKPEDTAVYYCAAKITAYWRYISDYGYWGQGTQVTVSS | high polyreactivity
26 | QVQLVESGGGLVQAGGSLRLSCAASGRTFYVNTMGWYRQATGKETELVARITRGGSTYYADSVKGRFTISRDNAKNTVYLQMNSLKPEDTAVYYCATDHFPVYSTHVIYEFDYWGQGTQVTVSS | low polyreactivity
27 | QVQLVESGGGLVQAGGSLRLSCAASGRTFYVYAMGWYRQAPGKERELVAAITRGGRTKYADSVKGRFTISRDNAKNTVYLQMNSLKPEDTAVYYCATVASPNRGGVSRYDYWGQGTQVTVSS | high polyreactivity
28 | QVQLVESGGGLVQAGGSLRLSCAASGRTFYWNAMGWSRQAPGKERELVASINCGGSTYYADSVKGRFTISRDNAKNTVYLQMNSLKPEGTAVYYCNAESYEFHRAWGDYDYWGQGTQVTVSS | low polyreactivity
29 | QVQLVESGGGLVQAGGSLRLSCAASGRTFYWNAMGWYRQAPGKERELVAAIRWRGGNTYYADSVKGRFTISRDNAKNTVYLQMNSLKPEDTAVYYCAAAGGKSEMGYWGQGTQVTVSS | high polyreactivity
30 | QVQLVESGGGLVQAGGSLRLSCAASGRTFYWNAMGWYRQAPGKERELVAAISWRGGSTYYADSVKGRFTISRDNAKNTVYLQMNSLKPEDTAVYYCAAYHSREYDYWGQGTQVTVSS | high polyreactivity
31 | QVQLVESGGGLVQAGGSLRLSCAASGRTFYWNTMGWYRQAPGKERELVAAINYSGGSTYYADSVKGRFTISRDNAKNTVYLQMNSLKPEDTAVYYCAAYFHGYKSQHRARSEYNYWGQGTQVTVSS | high polyreactivity
32 | QVQLVESGGGLVQAGGSLRLSCAASGRTFYWYAMGWYRQAPGKERELVAAIRKTDTSTYYADSVKGRFTISRDNAKNTVYLQMNSLKPEDTAVYYCAARSTYSSGKYGYKYDYWGQGTQVTVSS | high polyreactivity
33 | QVQLVESGGGLVQAGGSLRLSCAASGRTFYYAMGWYRQAPGTERELVATITSGGSTNYADSVKGRFTISRDNAKNTVYLQMNSLKPEDTAVYYCNRDIPPGNYYKALYYYWGQGTQVTVSS | low polyreactivity
34 | QVQLVESGGGLVQAGGSLRLSCAASGRTFYYNAMGGYRPAPGKERELVATITWTGDSTYADSVKGRFTISRDNAKNTVYLQMISLKPEDTAVYYCAAGKPVILTGDYDYWGQGTQVTVSS | low polyreactivity
35 | QVQLVESGGGLVQAGGSLRLSCAASGRTFYYNAMGWYRQAPGKEREFVAAIRYSGGITYYADSVKGRFTISRDNAKNTVYLQMNSQKPEDTAVYYCAADYVSRRYYYWGQGTQVTVSS | high polyreactivity
36 | QVQLVESGGGLVQAGGSLRLSCAASGRTFYYNAMGWYRQAPGKEREFVAGISYGGTTTYYADSVKGRFTISRDNAKNTVYLQMNSLKPEDTAVYYCAAGYTWRQSWYPFDYWGQGTQVTVSS | high polyreactivity
37 | QVQLVESGGGLVQAGGSLRLSCAASGRTFYYNAMGWYRQAPGKERELVAAITSRGTTYYADSVKGRFTISRDNAKNTVYLQMNSLKPEDTAVYYCAALALYRAQGNLDYWGQGTQVTVSS | high polyreactivity
38 | QVQLVESGGGLVQAGGSLRLSCAASGRTFYYYAMGWNRQAPGKEREFVASITWRGGRTYYADSVKGRFTISRDYAKNTVYLQMNSLKPEDTAVYYCAADGSYAIGGYGYWGQGTQVTVSS | high polyreactivity
39 | QVQLVESGGGLVQAGGSLRLSCAASGRTFYYYAMGWYRQAPGKEREFVAAIRFSGGNTYYADSVKGRFTISRDNAKNTVYLQMNSLKPVDTAVYYCAARRLLYKYWTGGPYDYWGQGTQVTVSS | high polyreactivity
40 | QVQLVESGGGLVQAGGSLRLSCAASGRTFYYYAMGWYRQAPGKERELVAAIRWRGGRTYADSVKGRFTISRDNAKNTVYLQMNSLKQEDTAVYYCNAGFHYPSTYWIYYSGGNYWGQGTQVTVSS | high polyreactivity
41 | QVQLVESGGGLVQAGGSLRLSCAASGRTFYYYAMGWYRQAPGKERELVAAISSRGGRTYYADSVKGRFTISRDNAKNTVYLQMNSLKPEDTAVYYCAKVVAYYDRDSWGQGTQVTVSS | high polyreactivity
42 | QVQLVESGGGLVQAGGSLRLSCAASGRTFYYYAMGWYRQAPGKERELVAAISWGGGRTYYADSVKGRFTISRDNAKNTVYLQMNSLKPEDTAVYYCNAVRTTPSGSLPLAYDYWGQGTQVTVSS | low polyreactivity
43 | QVQLVESGGGLVQAGGSLRLSCAASGRTFYYYAMGWYRQAPGKERELVAAISWRGGSTYYADSVKGRFTISRDNAKNTVYLQMNSLKPEDTAVYYCAVYTTYSRYRGYDYWGQGTQVTVSS | high polyreactivity
